Experimental data taken from patent US20240018501A1, “HIGHER PERFORMANCE PROTEASES FOR SCARLESS PEPTIDE TAG REMOVAL” (priority 2017, published 2024).
Ends that are not written are not given here.

Assays:
Pyr-AA = system: T1, Pyr-AA
T1 sequence: AA

Pyr-AAI = system: T2, Pyr-AAI
T2 sequence: AAI

Pyr-APVLA = system: T3, Pyr-APVLA
T3 sequence: APVLA

Pyr-AAIV = system: T4, Pyr-AAIV
T4 sequence: AAIV

OBu-AGPAIR = system: T5, OBu-AGPAIR
T5 sequence: AGPAIR

Pyr-AAAVK = system: T6, Pyr-AAAVK
T6 sequence: AAAVK

Pyr-A = system: T7, Pyr-A
T7 sequence: A

Pyr-LGPAIK = system: T8, Pyr-LGPAIK
T8 sequence: LGPAIK

His6-NisA = His6-NisA (UniProt P13068)
MBP-ElxP = MBP-ElxP activity assay by MALDI-TOF MS; type: biochemical, Staphylococcus epidermidis; conditions: non-cognate NisA and NisA mutants
Method: A typical activity assay consisted of 50 mM Tris HCl pH 8.0, 50 μM peptide, 5 μM MBP-ElxP in a final volume of 100 μL. The sample was incubated for 2 h at room temperature. To monitor cleavage activity, samples were desalted using a zip tip concentrator (Millipore), mixed in a 1:1 ratio with sinapinic acid, and spotted on a MALDI-TOF Bruker plate. Ion intensities for the resulting precursor peptide, leader peptide and core peptide were normalized and the proteolytic efficiency was measure as the amount of substrate left after cleavage reaction (Table 1). Reactions were performed with tagged enzyme and substrates unless otherwise noticed.

[1] = molecular target: dehydrated and cyclized LanA2 from B. licheniformis 9945A
[2] = molecular target: T9, LanA3 encoded by the genome of B. cereus VD156
T9 chain: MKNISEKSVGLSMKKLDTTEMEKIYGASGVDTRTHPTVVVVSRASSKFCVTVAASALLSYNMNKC

[3] = molecular target: CylLS″ with a 5-amino acid N-terminal peptide
His6-NisA-GDVQAE, P13068 = molecular target: T10, His6-NisA-GDVQAE, P13068
T10 chain: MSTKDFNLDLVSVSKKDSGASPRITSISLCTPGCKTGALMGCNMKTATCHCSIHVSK

[4] = molecular target: HalM2-modified HalA2-GDVQAE
[5] = molecular target: CylLL″ with a 5-amino acid peptide remaining from the leader
[6] = molecular target: ProcA1.7-T1C (with GDVQAE)
[7] = molecular target: His6-ProcA1.7 with GDVQAE inserted between the His6-tag sequence and ProcA1.7
[8] = molecular target: NisA-I1C (with GDVQAE), P13068
[9] = molecular target: HalM1-modified HalA1-GDVQAE
[10] = molecular target: peptides with Glu or Lys in the P1′ position (after GDVQAE)

## His6-ElxO
Pyr-DAIVK
  Relative (kcat/Km): 0.12
  kcat/Km (reduction by His6-ElxO, NADPH absorbance at 340 nm): 0.29 M⁻¹ s⁻¹
Pyr-AA
  Relative (kcat/Km): < 0.01
  kcat/Km (reduction by His6-ElxO, NADPH absorbance at 340 nm): < 0.03 M⁻¹ s⁻¹
Pyr-PAIVK
  Relative (kcat/Km): 0.05
  kcat/Km (reduction by His6-ElxO, NADPH absorbance at 340 nm): 0.13 M⁻¹ s⁻¹
Pyr-AAI
  Relative (kcat/Km): 0.02
  kcat/Km (reduction by His6-ElxO, NADPH absorbance at 340 nm): 0.06 M⁻¹ s⁻¹
Pyr-APVLA
  reduction by His6-ElxO with NADPH, LC-MS: All the peptides were reduced as confirmed by LC-MS analysis
Glx-AAIVK
  Relative (kcat/Km): < 0.01
  kcat/Km (reduction by His6-ElxO, NADPH absorbance at 340 nm): < 0.03 M⁻¹ s⁻¹
Pyr-AAIV
  Relative (kcat/Km): 0.47
  kcat/Km (reduction by His6-ElxO, NADPH absorbance at 340 nm): 1.13 M⁻¹ s⁻¹
Obu-RAIVK
  Relative (kcat/Km): 0.62
  kcat/Km (reduction by His6-ElxO, NADPH absorbance at 340 nm): 1.51 M⁻¹ s⁻¹
Pyr-KAIVK
  Relative (kcat/Km): 1.74
  kcat/Km (reduction by His6-ElxO, NADPH absorbance at 340 nm): 4.22 M⁻¹ s⁻¹
OBu-AGPAIR
  reduction by His6-ElxO with NADPH, LC-MS: All the peptides were reduced as confirmed by LC-MS analysis
Pyr-AAAVK
  Relative (kcat/Km): 0.12
  kcat/Km (reduction by His6-ElxO, NADPH absorbance at 340 nm): 0.29 M⁻¹ s⁻¹
Pyr-A
  Relative (kcat/Km): < 0.01
  kcat/Km (reduction by His6-ElxO, NADPH absorbance at 340 nm): < 0.03 M⁻¹ s⁻¹
Pyr-AAIVA
  Relative (kcat/Km): 0.55
  kcat/Km (reduction by His6-ElxO, NADPH absorbance at 340 nm): 1.33 M⁻¹ s⁻¹
Pyr-RAIVK
  Relative (kcat/Km): 2.26
  kcat/Km (reduction by His6-ElxO, NADPH absorbance at 340 nm): 5.5 M⁻¹ s⁻¹
Pyr-LGPAIK
  reduction by His6-ElxO with NADPH: His6-ElxO reduced both peptides
Pyr-MAIVK
  Relative (kcat/Km): 6.4
  kcat/Km (reduction by His6-ElxO, NADPH absorbance at 340 nm): 15.5 M⁻¹ s⁻¹
Pyr-AAIVKBBIKAAKK
  Relative (kcat/Km): 5.83
  kcat/Km (reduction by His6-ElxO, NADPH absorbance at 340 nm): 14.2 M⁻¹ s⁻¹
Pyr-AAVLK
  reduction by His6-ElxO with NADPH: His6-ElxO reduced both peptides
Pyr-AAIAK
  Relative (kcat/Km): 0.65
  kcat/Km (reduction by His6-ElxO, NADPH absorbance at 340 nm): 1.59 M⁻¹ s⁻¹
Pyr-BPVLAAVAVAKKK
  reduction by His6-ElxO with NADPH, LC-MS: All the peptides were reduced as confirmed by LC-MS analysis
Obu-AAIVK
  Relative (kcat/Km): 0.38
  kcat/Km (reduction by His6-ElxO, NADPH absorbance at 340 nm): 0.92 M⁻¹ s⁻¹
Lactocin S
  reduction by His6-ElxO with NADPH, high-resolution LC-MS: confirming the formation of dihydrolactocin S
Pyr-NAIVK
  Relative (kcat/Km): 3.13
  kcat/Km (reduction by His6-ElxO, NADPH absorbance at 340 nm): 7.6 M⁻¹ s⁻¹
Pyr-AAIVK
  Relative (kcat/Km): 1
  kcat/Km (reduction by His6-ElxO, NADPH absorbance at 340 nm): 2.43 M⁻¹ s⁻¹

## MBP-ElxP
His6-ElxA D-5A
  MBP-ElxP cleavage result by MALDI-TOF MS (+++ complete, ++ partial, + marginal cleavage): +
His6-ElxA wt
  MBP-ElxP cleavage result by MALDI-TOF MS (+++ complete, ++ partial, + marginal cleavage): +++
  catalytic efficiency of cleavage (HPLC, leader peptide formation): MBP-ElxP cleaved the wild type ElxA with an efficiency of ˜240 M-'s 1
His6-ElxA L-4A
  MBP-ElxP cleavage result by MALDI-TOF MS (+++ complete, ++ partial, + marginal cleavage): +
  fold reduction of the ElxP catalytic efficiency against wild type ElxA: reduction of ˜14-fold in the ElxP catalytic efficiency
His6-ElxA N-3A
  MBP-ElxP cleavage result by MALDI-TOF MS (+++ complete, ++ partial, + marginal cleavage): +++
His6-ElxA P-2A
  MBP-ElxP cleavage result by MALDI-TOF MS (+++ complete, ++ partial, + marginal cleavage): ++
  efficiency of leader peptide removal (HPLC kinetics, FIG. 3D): did not obviously decrease the efficiency of MBP-ElxP to remove the N-terminal leader peptide from ElxA
His6-ElxA Q-1A
  MBP-ElxP cleavage result by MALDI-TOF MS (+++ complete, ++ partial, + marginal cleavage): +
  fold reduction of the ElxP catalytic efficiency against wild type ElxA: reduction of ˜14-fold in the ElxP catalytic efficiency
His6-ElxA N-16A
  MBP-ElxP cleavage result by MALDI-TOF MS (+++ complete, ++ partial, + marginal cleavage): +++
His6-ElxA L-17A
  MBP-ElxP cleavage result by MALDI-TOF MS (+++ complete, ++ partial, + marginal cleavage): +++
His6-ElxA D-18A
  MBP-ElxP cleavage result by MALDI-TOF MS (+++ complete, ++ partial, + marginal cleavage): +++
His6-NisA
  cleavage by ElxP, MALDI-TOF MS: ElxP does not cleave wild type NisA
His6-ElxA F-19A
  MBP-ElxP cleavage result by MALDI-TOF MS (+++ complete, ++ partial, + marginal cleavage): ++

## wild type NisA: non-cognate lanthipeptide precursor peptide of nisin, His6-tagged (MSTKDFNLDLVSVSKKDSGASPRITSISLCTPGCKTGALMGCNMKTATCHCSIHVSK; cysteine pairing not given here; also: His6-tagged, tag position not given here)
MBP-ElxP
  cleavage by ElxP: does not cleave

B1: LanP from B. licheniformis 9945A (without signal sequence, with His6 tag) (protein)
chain: MGSSHHHHHHSQDPDRYTIYLESPAHHDDWVKTLNERNIKLVYSVEEIGLYQIEGRQKEVQELAAEINYINSHNQSVAMQPASLHNTAPAEATIFGGTPTLWDDFQWDMRKATNNGQTYQITEGSKNTIVGIIDSGIDMNHPDLKENILSVRNFVPKGGLRGQEPYEKGDINDSTDYLGHGTFVAGQIAANGLMKGIAPETGIRSYRVFGGKSADTVWIIDAIIQAAIDDVDIINVSFGTFLVKQNRKNKQMPDTNDLAEIKAFKKAVSFAHKKGSAVVASIGNEGLDLKDKNAVFEYWRSTKQEDLSADGKVILIPAQLPNVVTVSSIGPSGMRSVFSNYGKNVVDIAADGGDLRLLNEVGEDRYYGEGLFRQEYILGAAPGVTYTFSIGTSIAAPKVSGALALLIDQKQLHDKPDKAVKILLKNADRNADKIDTGAGVLNVYRALTD
[1]
  cleavage by the corresponding LanP, MALDI-TOF MS: fully modified core peptide is observed after protease treatment (inset) ... the leader peptide is also observed

B2: LanP of B. cereus VD156 (without signal sequence, with His6 tag) (protein)
chain: MGSSHHHHHHSQDPTQIAYYSILIRDNTDFNTVLDKLSKDNQEVVYSIPEVNLIQVKGEKGKIISGIGLESIEEINPSTGEFKTYTPNINDQKVLDNKAIWDVQWDIKRITNNGESYKLHSPSGKVSVALIDSGYPENHPDIKSISIQKSKNLVPKGGYKGNEENETGNIHQLTDRTGHGTSVLSQVNADGLMKGVAPGMPVNMYRVFGESSAEGSWIIKGIIEAAKDKNDVINISAGSYLLKNGTYSDGSGNNRAEIKAYEKAIHYANKKGSIVVSALGNDSININIYSELLSILNSKIKDEGKSATGIVQDIPAQLAQVVSVASTGMDSKVSSFSNYGKNIIDFTAPGGDIKLLNKFGADVWMAEEMFKKEMILVAHPQGGYYFNYGNSLATPKVSGALALVIDKYGYKNKPNKAINHLKRNTNAENEIDLYKALQE
[2]
  cleavage by the corresponding LanP, MALDI-TOF MS: the core peptide is detected ... and the leader peptide is also observed

B3: His6-CylA-27-412 (protein)
chain: MGSSHHHHHHSQDPNSLSNNISFFIDNSQTTAIEEIESELSSEKVDYIQEIGLVSFKNLDDSDRKFIGKYFNVSEGKKLPDFKPEEVNSSILNINILNKDFKSFNWPYKKILSHIDPVKEQLGKDITIALIDSGIDRLHPNLQDNNLRLKNYVNDIELDEYGHGTQVAGVIDTIAPRVNLNSYKVMDGTDGNSINMLKAIVDATNDQVDIINVSLGSYKNMEIDDERFTVEAFRKVVNYARKNNILIVASAGNESRDISTGNEKHIPGGLESVITVGATKKSGDIADYSNYGSNVSIYGPAGGYGDNYKITGQIDAREMMMTYYPTSLVSPLGKAADFPDGYTLSFGTSLATPEVSAALAAIMSKNVDNSKDSNEVLNTLFENADSFIDKNSMLKYKEVRIK
His6-ProcA1.7-GDVQAE
  cleavage by CylA, MALDI-TOF MS: the leader peptides of both His6-ProcA1.7-GDVQAE and His6-NisA-GDVQAE were successfully removed
[3]
  cleavage by CylA, MALDI-TOF MS: the 5 amino acids were successfully removed
His6-NisA-GDVQAE, P13068
  cleavage by CylA, MALDI-TOF MS: the leader peptides of both His6-ProcA1.7-GDVQAE and His6-NisA-GDVQAE were successfully removed
Modified CylLS
  cleavage by CylA, MS: the enzyme also removed the entire leader peptides
[4]
  cleavage by CylA, MALDI-TOF MS: the leader peptide was successfully removed
[5]
  cleavage by CylA, MALDI-TOF MS: the 5 amino acids were successfully removed
ProcA1.7-GDVQAE-T1F
  cleavage by CylA, MALDI-TOF MS: CylA specifically cleaved after Glu-1 for all three mutant peptides
[6]
  cleavage by CylA: CylA cleanly removed the leader peptide from both substrates
[7]
  cleavage by CylA: Incubation with CylA indeed resulted in cleavage and removal of the His6-tag sequence
Modified CylLL
  cleavage by CylA, MS: the enzyme also removed the entire leader peptides
[8]
  cleavage by CylA: CylA cleanly removed the leader peptide from both substrates
[9]
  cleavage by CylA, MALDI-TOF MS: The modified peptide was successfully digested upon incubation with CylA
Linear CylLS
  cleavage by CylA, MALDI-TOF MS: it also removed the leader peptides from linear CylLL and CylLS
[10]
  cleavage by CylA: it did not accept Glu or Lys in the P1′ position
Linear CylLL
  cleavage by CylA, MALDI-TOF MS: it also removed the leader peptides from linear CylLL and CylLS
ProcA1.7-GDVQAE-T1G
  cleavage by CylA, MALDI-TOF MS: CylA specifically cleaved after Glu-1 for all three mutant peptides, albeit with a lower efficiency for the T-1G mutant
ProcA1.7-GDVQAE-T1W
  cleavage by CylA, MALDI-TOF MS: CylA specifically cleaved after Glu-1 for all three mutant peptides
